Here are results for 2 molecules from patent publication US20180155450A1 (Sanofi, published 2018).

Assay [1] has as its target T1, recombinant human IL4 (human, UniProt P05112 25-153).
T1 construct: bought
T1 sequence (looked up): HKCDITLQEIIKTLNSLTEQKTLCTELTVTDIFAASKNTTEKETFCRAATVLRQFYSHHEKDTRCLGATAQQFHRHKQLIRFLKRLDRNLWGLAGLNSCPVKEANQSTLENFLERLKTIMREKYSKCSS
Nature of the assay: SPR (Biacore 3000), antibody captured, antigen as analyte. (Surface plasmon resonance follows binding to a sensor surface in real time, without labels.)
Experimental: (§1) Kinetic binding analysis by Biacore was performed as follows. Surface plasmon resonance technology on a Biacore 3000 (GE Healthcare) was used for detailed kinetic characterization of purified antibodies. […] Chip surfaces were regenerated with 10 mM glycine pH 2.5. Kinetic parameters were analyzed and calculated in the BIAevaluation program package v4.1 using a flow cell without captured antibody as a reference.

In assay [2] the target is T1, recombinant human IL4. Nature of the assay: cell-based or functional assay.
Assay [3] has as its target T1, recombinant human IL4. As to the kind of experiment: SPR (Biacore 3000), antibody captured, antigen as analyte. The source holds these as a separate data set.
Experimental: as §1
A further assay has as its target T2, recombinant human IL13 (human, UniProt P35225 35-146, limits assumed).
T2 construct: also called Antigen2
Nature of the assay: SPR, BIACORE 3000; antibody captured by anti-human Fc, antigen 0-25 nM as analyte.

One may read the Kd as the equilibrium constant for the complex coming apart.

Like-named read-outs stand apart in the source and are kept apart here.

T2 sequence (P35225 35-146 limits assumed): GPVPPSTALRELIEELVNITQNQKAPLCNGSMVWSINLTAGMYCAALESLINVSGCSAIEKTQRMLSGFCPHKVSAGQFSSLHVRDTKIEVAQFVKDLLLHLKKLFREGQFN
Experimental for recombinant human IL13: Kinetic characterization of purified antibodies was performed using surface plasmon resonance technology on a BIACORE 3000 (GE Healthcare). […] Chip surfaces were regenerated with 10 mM glycine, pH 2.5. Kinetic parameters were analyzed and calculated in the BIAevaluation program package v4.1 using a flow cell without captured antibody as reference.

B1: CODV-Ig Batch ID 204 (IL4 × IL13 on HC; L1=7, L2=5, L3=1, L4=2) (bispecific antibody)
heavy: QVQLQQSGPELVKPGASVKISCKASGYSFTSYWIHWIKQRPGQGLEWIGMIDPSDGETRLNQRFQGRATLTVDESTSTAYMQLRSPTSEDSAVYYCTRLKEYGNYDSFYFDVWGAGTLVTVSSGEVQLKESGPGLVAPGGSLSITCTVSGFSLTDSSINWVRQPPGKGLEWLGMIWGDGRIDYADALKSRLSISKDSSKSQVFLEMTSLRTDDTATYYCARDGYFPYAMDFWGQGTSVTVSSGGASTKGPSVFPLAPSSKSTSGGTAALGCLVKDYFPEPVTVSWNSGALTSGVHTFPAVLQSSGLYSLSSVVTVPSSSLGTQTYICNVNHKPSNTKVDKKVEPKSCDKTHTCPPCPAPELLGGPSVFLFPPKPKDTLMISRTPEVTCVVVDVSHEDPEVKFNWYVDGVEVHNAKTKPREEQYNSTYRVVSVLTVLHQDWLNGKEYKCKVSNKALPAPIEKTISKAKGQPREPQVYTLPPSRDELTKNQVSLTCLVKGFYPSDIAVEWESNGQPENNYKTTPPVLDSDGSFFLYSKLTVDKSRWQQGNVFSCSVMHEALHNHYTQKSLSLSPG
light: DIVLTQSPASLAVSLGQRATISCRASESVDSYGQSYMHWYQQKAGQPPKLLIYLASNLESGVPARFSGSGSRTDFTLTIDPVQAEDAATYYCQQNAEDSRTFGGGTKLEIKGGGGGGGDIQMTQSPASLSVSVGDTITLTCHASQNIDVWLSWFQQKPGNIPKLLIYKASNLHTGVPSRFSGSGSGTGFTLTISSLQPEDIATYYCQQAHSYPFTFGGGTKLEIKGGGGGRTVAAPSVFIFPPSDEQLKSGTASVVCLLNNFYPREAKVQWKVDNALQSGNSQESVTEQDSKDSTYSLSSTLTLSKADYEKHKVYACEVTHQGLSSPVTKSFNRGEC
notes: 704 prints 'IL13 × IL4' and format 'CODV'; also called 801; 704
As to B1, the Kd with recombinant human IL4 [1] and with recombinant human IL4 [3] was 0.003 nM in each case. Besides, in the assay with recombinant human IL4 [2], the “IC50 Cellular Assay IL4 [nM] (HEK-Blue IL-4/IL-13 reporter cells, SEAP)” value came to 0.045 nM.

B2: parental anti-IL13 mAb (antibody, V domains shown)
VH: EVQLKESGPGLVAPGGSLSITCTVSGFSLTDSSINWVRQPPGKGLEWLGMIWGDGRIDYADALKSRLSISKDSSKSQVFLEMTSLRTDDTATYYCARDGYFPYAMDFWGQGTSVTVSS
VL: DIVLTQSPASLAVSLGQRATISCRASESVDSYGQSYMHWYQQKAGQPPKLLIYLASNLESGVPARFSGSGSRTDFTLTIDPVQAEDAATYYCQQNAEDSRTFGGGTKLEIK
notes: also called parental humanized anti-IL13; BB13
For B2, the Kd in the assay with recombinant human IL13 was determined as 0.0818 nM.
